Measured values reported in publication PMC3229523, “Identification of Lactoferricin B Intracellular Targets Using an Escherichia coli Proteome Chip” (PLoS ONE, 2011).
Ends that are not written are not given here. * marks the point of attachment. Biotin = O=C1N[C@H]2[C@H](CS[C@H]2CCCCC(=O)*)N1

Tests used:
Experiment in all cases: peptide or protein array; E. coli proteome chip: purified His-tagged proteins printed in duplicate on Fullmoon slides, blocked with 1% BSA; 10 nM N-terminal biotinylated LfcinB with 1% BSA, room temperature, 1 h; detected with DyLight 649-labeled streptavidin, ratio to DyLight 549-labeled anti-His antibody; ProCAT normalisation, local cut-off; triplicate chips
Details in all cases: both partners purified
[1] = molecular target: T1, YibA (E. coli K-12, UniProt P0ADK6 1-280)
T1 construct: YibA, E. coli K-12
T1 sequence (looked up): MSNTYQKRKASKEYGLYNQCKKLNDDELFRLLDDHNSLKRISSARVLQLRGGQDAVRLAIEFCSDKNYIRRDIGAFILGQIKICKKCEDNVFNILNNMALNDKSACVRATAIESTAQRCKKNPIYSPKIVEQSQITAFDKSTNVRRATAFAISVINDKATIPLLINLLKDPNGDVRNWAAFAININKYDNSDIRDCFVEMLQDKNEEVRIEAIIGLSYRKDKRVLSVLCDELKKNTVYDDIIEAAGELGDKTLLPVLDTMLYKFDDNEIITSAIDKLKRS

[2] = molecular target: RplN (E. coli K-12, UniProt P0ADY3 1-123)
[3] = molecular target: T2, YjfW (E. coli K-12, UniProt P39305 1-284)
T2 construct: YjfW, E. coli K-12
T2 sequence (looked up): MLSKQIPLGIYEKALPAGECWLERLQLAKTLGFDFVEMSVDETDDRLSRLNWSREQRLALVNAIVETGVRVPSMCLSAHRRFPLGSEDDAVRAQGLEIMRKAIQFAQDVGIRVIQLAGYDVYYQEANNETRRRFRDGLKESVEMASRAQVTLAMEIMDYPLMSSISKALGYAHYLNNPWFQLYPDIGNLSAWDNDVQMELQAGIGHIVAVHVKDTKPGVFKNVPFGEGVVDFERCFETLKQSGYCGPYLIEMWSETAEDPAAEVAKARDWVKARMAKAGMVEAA

[4] = molecular target: T3, Rob (E. coli K-12, UniProt P0ACI0 1-289)
T3 construct: Rob, E. coli K-12
T3 sequence (looked up): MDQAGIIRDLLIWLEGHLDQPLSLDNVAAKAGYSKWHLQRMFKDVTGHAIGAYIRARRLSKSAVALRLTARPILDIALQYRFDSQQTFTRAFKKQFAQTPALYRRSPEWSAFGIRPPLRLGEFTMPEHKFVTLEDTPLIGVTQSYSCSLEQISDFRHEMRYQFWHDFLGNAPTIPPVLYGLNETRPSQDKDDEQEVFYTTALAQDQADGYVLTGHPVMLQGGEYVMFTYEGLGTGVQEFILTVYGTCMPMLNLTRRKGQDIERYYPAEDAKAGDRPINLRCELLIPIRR

[5] = molecular target: T4, Adi (E. coli K-12, UniProt P28629 1-755)
T4 construct: Adi, E. coli K-12
T4 sequence (looked up): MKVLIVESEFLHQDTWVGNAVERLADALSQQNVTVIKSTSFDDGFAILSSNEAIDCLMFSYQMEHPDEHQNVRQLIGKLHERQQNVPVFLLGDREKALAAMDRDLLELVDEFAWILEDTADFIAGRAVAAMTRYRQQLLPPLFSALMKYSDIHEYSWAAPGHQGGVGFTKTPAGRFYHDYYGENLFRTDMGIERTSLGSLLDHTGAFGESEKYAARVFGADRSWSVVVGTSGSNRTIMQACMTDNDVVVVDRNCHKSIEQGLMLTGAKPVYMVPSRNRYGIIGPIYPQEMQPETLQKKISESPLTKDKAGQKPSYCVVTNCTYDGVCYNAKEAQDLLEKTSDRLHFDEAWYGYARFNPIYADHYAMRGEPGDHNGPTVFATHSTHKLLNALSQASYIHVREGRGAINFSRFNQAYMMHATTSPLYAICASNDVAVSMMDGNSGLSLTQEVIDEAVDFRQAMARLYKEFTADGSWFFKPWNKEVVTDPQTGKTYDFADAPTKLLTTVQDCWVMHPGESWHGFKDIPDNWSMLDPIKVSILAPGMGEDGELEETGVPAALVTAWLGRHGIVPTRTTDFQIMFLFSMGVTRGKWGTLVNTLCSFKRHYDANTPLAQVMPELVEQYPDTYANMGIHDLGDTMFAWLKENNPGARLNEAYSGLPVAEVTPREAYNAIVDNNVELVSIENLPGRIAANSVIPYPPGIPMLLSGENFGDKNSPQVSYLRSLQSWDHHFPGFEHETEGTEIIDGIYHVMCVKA

[6] = molecular target: T5, YcgK (E. coli K-12, UniProt P76002 23-133)
T5 construct: YcgK, E. coli K-12
T5 sequence (looked up): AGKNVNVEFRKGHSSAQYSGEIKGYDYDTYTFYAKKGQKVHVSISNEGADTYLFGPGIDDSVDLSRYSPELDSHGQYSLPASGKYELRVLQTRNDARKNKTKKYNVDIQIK

Measured: binding result

B1: N-terminal biotinylated Lactoferricin B (peptide, UniProt P24627 36-60, looked up)
peptide: Biotin-FKCRRWQWRMKKLGAPSITCVRRAF
modifications: ends and bridges not checked
notes: lactoferricin B (LfcinB), cationic antimicrobial peptide of 25 amino acids; also called biotinylated LfcinB; biotin-labeled LfcinB; source: bought: Kelowna Inc
binds: all assays above
